We go through four molecules from patent US20140221282A1, “LONG DURATION DUAL HORMONE CONJUGATES” (priority 2011, published 2014).

A word on the IC50: it is the midpoint of a concentration-inhibition curve. Read a high IC50 as lower potency.

Ends that are not written are not given here. Y‑shaped mPEG40KD = Y-shaped methoxy-PEG of 40 kDa attached to the Lys side chain; mPEG40KD = methoxy-PEG of 40 kDa

In the assay the target is amylin receptor of rat nucleus accumbens membranes (rat). Nature of the assay: competition with 125I-rat amylin, rat nucleus accumbens membranes.
Chain of amylin receptor of rat nucleus accumbens membranes (rat) (P32214 other isoform, or with tags, fused parts or gaps, chain 1 of 2): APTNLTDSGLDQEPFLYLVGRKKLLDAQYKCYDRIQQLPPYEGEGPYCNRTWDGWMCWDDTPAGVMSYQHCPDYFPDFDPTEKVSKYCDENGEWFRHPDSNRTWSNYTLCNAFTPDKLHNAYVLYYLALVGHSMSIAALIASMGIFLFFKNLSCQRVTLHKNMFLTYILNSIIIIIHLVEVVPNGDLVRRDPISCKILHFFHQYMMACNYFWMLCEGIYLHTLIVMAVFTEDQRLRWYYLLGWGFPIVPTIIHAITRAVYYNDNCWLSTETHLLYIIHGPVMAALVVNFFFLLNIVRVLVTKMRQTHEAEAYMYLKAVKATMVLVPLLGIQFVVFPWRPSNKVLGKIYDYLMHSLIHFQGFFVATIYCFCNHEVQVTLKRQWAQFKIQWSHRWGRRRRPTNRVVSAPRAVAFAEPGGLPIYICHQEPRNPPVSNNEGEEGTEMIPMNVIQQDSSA
Chain of amylin receptor of rat nucleus accumbens membranes (rat) (Q9JJ74 27-148, chain 2 of 2, further chain): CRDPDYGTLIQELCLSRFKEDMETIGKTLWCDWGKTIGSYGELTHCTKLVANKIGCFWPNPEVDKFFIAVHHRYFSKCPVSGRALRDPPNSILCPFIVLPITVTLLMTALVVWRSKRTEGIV
For the molecule KCNTATCATQRLANFLVRSSNNLGPK(mPEG40KD)LPPTNVGSNTY-NH2 (ends and bridges not checked) [[K^26(mPEG40KD)]-Cmpd 53], the IC50 turned out to be 66 nM.
As to CNTATCATQRLANFLVRSSNNLGPVLPPTNVGSNTY-NH2 (ends and bridges not checked) [[des-Lys^1]-Cmpd 49], the concentration for half-maximal inhibition (IC50) turned out to be 0.42 nM.
With mPEG40KD-CNTATCATQRLANFLVRSSNNLGPVLPPTNVGSNTY-NH2 (ends and bridges not checked) [mPEG40KD-Cmpd 50], the IC50 was found to be 78 nM.
The figure for KCNTATCATQRLANFLVRSSNNLGPK(Y‑shaped mPEG40KD)LPPTNVGSNTY-NH2 (ends and bridges not checked) [[K^26(Y-shaped-mPEG40KD)]-Cmpd 53] is 470 nM.
